From patent US20260008839A1 (BRIGHAM AND WOMEN S HOSPITAL, published 2026)
Each block holds one molecule with its values, some of them ahead of it.

Legend:
Dll4 [1] = assay: flow cytometry: recombinant NOTCH1-Fc + PE anti-IgG Fc on DLL4-expressing Cf2Th cells pre-treated with control IgG
Dll4 [2] = assay: flow cytometry: recombinant NOTCH1-Fc + PE anti-IgG Fc on DLL4-expressing Cf2Th cells pre-treated with control IgG; gate PE+
Dll4 [3] = assay: flow cytometry: recombinant NOTCH1-Fc + PE anti-IgG Fc on DLL4-expressing HEK293T cells pre-treated with control IgG; gate PE+
human DLL1 [4] = target: T1, human DLL1 (human, UniProt O00548 18-545, limits assumed); assay: head of the antibody's table; assay not named
T1 construct: Construct not described; also called Hu.DLL1
T1 sequence (looked up): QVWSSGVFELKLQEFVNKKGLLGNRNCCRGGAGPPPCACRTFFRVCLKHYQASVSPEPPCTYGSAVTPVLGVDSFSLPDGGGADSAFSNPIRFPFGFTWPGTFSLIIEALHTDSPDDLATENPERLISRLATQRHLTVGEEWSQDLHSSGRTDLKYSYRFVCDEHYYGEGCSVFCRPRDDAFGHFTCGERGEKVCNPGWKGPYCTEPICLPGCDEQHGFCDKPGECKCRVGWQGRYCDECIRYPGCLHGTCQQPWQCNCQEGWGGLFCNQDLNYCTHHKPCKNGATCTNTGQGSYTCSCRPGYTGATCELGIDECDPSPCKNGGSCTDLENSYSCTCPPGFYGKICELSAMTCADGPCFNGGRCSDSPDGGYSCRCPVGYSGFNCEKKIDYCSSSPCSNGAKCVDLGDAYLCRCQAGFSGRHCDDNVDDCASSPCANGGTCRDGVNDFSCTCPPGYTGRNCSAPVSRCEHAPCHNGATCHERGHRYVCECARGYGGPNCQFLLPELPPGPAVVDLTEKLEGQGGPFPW

human DLL4 [5] = target: T2, human DLL4 (human, UniProt Q9NR61 27-529, limits assumed); assay: SPR Biacore 3000, full kinetics, against 8D2 as reference
T2 construct: also called Hu.DLL4; HuDLL4
Method: (§1) Binding experiments were performed on Biacore 3000 at 25° C. Flow cell 2, 3 and 4 of the CM5 chip were coated with the goat anti-rat Fc Capture Ab using EDC/NHS the amine coupling method as per GE manufacturer's instruction. The unoccupied sites were blocked with 1M ethanolamine. Three test antibodies were captured at an RU as indicated on flow cell 2, 3 and 4. Ag was flowed over the chip. Binding of antigen to the antibodies was monitored in real time. From the observed kₒₙ and koff, KD was determined. For the interactions with fast off rate, steady state kinetics was used to determine KD.

human DLL4 [6] = target: T2, human DLL4; assay: head of the antibody's table; summary bound, assay and unit not named there
human DLL4 [7] = target: T2, human DLL4; assay: SPR Biacore 3000, antibody captured on anti-rat Fc (170 RU), scouting at 100 nM analyte
Method: as §1
(§2) Scouting analysis was performed using a single analyte concentration of 100 nM. At this concentration, binding should be observed even if the ligand binding affinity is weak. Flow cell 1 response was used for reference subtraction.

human DLL4 [8] = target: T2, human DLL4; assay: SPR Biacore 3000, antibody captured on anti-rat Fc (90 RU), full kinetics, analyte 0-25 nM
Method: as §1

porcine DLL4 [9] = target: T3, porcine DLL4 (porcine, UniProt A0A4X1URL1 27-529); assay: SPR Biacore 3000, antibody captured on anti-rat Fc (80 RU), full kinetics, analyte 0-50 nM
T3 construct: Construct not described (pig DLL4 ECD is named only for hybridoma screening); also called pig DLL4; porcine DDL4
Method: as §1

porcine DLL4 [10] = target: T3, porcine DLL4; assay: SPR Biacore 3000, antibody captured on anti-rat Fc (80 RU), scouting at 20 nM and 100 nM analyte
Method: as §1

human DLL1 [11] = target: T1, human DLL1; assay: SPR Biacore 3000, antibody captured on anti-rat Fc (220 RU), scouting
Method: as §1, §2

human DLL4 [12] = target: T2, human DLL4; assay: SPR Biacore 3000, antibody captured on anti-rat Fc (220 RU), scouting at 100 nM analyte
Method: as §1, §2

porcine DLL4 [13] = target: T3, porcine DLL4; assay: SPR Biacore 3000, antibody captured on anti-rat Fc (110 RU), full kinetics, analyte 0-50 nM
Method: as §1

human DLL4 [14] = target: T2, human DLL4; assay: SPR Biacore 3000, antibody captured on anti-rat Fc (140 RU), full kinetics, analyte 0-12.5 nM
Method: as §1

human DLL1 [15] = target: T1, human DLL1; assay: SPR Biacore 3000, antibody captured on anti-rat Fc (161 RU), scouting
Method: as §1, §2

human DLL4 [16] = target: T2, human DLL4; assay: SPR Biacore 3000, antibody captured on anti-rat Fc (161 RU), scouting at 100 nM analyte
Method: as §1, §2

porcine DLL4 [17] = target: T3, porcine DLL4; assay: SPR Biacore 3000, antibody captured on anti-rat Fc (130 RU), full kinetics, analyte 0-200 nM
Method: as §1

porcine DLL4 [18] = target: T3, porcine DLL4; assay: SPR Biacore 3000, antibody captured on anti-rat Fc (75 RU), scouting at 20 nM and 100 nM analyte

T3 sequence (A0A4X1URL1 entry or part of it): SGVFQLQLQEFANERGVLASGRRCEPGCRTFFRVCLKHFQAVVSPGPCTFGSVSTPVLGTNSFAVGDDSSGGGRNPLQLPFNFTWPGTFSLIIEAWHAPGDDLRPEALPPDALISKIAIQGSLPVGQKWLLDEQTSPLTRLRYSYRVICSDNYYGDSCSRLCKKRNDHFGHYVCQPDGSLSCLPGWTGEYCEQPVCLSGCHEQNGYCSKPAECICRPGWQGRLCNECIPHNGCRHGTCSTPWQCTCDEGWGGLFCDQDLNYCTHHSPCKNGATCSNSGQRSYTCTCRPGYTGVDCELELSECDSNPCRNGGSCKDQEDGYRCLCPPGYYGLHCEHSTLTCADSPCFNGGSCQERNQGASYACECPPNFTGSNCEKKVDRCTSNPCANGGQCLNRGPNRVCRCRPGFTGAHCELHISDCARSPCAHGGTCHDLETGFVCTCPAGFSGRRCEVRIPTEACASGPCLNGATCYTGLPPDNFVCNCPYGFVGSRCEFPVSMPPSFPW
T2 sequence (Q9NR61 27-529 limits assumed): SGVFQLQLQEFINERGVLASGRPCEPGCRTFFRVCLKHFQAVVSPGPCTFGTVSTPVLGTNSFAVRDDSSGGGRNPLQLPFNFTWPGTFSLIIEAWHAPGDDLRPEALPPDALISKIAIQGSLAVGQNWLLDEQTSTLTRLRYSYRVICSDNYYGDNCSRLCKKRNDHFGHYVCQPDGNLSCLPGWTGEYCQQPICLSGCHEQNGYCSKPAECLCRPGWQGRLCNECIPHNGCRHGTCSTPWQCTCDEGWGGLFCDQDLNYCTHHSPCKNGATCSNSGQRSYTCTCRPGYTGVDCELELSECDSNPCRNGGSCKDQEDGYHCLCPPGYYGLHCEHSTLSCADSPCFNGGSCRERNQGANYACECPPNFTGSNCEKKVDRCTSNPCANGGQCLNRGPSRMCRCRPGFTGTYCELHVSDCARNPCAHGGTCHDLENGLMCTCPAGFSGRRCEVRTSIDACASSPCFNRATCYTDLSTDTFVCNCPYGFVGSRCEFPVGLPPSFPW
Sequence of Dll4 (chain, as listed by the source limits assumed): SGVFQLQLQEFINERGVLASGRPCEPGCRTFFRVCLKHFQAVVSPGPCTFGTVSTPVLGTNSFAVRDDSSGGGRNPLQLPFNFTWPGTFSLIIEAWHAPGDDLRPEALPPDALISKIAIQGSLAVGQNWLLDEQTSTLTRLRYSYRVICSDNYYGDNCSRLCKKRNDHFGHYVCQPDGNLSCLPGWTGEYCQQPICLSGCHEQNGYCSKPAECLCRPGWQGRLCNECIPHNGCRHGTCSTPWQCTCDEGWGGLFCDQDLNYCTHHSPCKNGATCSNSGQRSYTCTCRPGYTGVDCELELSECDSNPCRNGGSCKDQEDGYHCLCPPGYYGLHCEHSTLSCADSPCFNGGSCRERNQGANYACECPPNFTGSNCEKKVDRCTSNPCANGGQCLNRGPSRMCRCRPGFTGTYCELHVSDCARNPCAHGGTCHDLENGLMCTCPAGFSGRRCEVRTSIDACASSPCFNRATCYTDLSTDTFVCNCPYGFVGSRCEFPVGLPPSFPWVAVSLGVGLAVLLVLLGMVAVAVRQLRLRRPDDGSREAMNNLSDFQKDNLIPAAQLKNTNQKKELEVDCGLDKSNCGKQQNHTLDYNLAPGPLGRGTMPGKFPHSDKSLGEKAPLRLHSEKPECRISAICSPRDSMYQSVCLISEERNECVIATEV

PE positive cells (%) (Dll4 [1]): 16.8%
PE positive cells (%) (Dll4 [2]): 11%
PE positive cells (%) (Dll4 [3]): 9.6%
Molecule: NOTCH1-Fc (Fc fusion)

binding result (human DLL1 [4]): no binding
fold higher affinity than 8D2 (human DLL4 [5]): ~10 fold
fold lower off rate than 8D2 (human DLL4 [5]): 4 fold
kon (human DLL4 [6]): > 500000 M⁻¹ s⁻¹
Kd (human DLL4 [7]): 3.68 nM
koff (human DLL4 [7]): 0.000505 s⁻¹
kon (human DLL4 [7]): 137000 M⁻¹ s⁻¹
Kd (human DLL4 [8]): 0.343 nM
koff (human DLL4 [8]): 0.000439 s⁻¹
kon (human DLL4 [8]): 1.28e+06 M⁻¹ s⁻¹
Kd (porcine DLL4 [9]): 7.07 nM
koff (porcine DLL4 [9]): 0.00198 s⁻¹
kon (porcine DLL4 [9]): 281000 M⁻¹ s⁻¹
Kd (porcine DLL4 [10]): 15.4 nM
koff (porcine DLL4 [10]): 0.00162 s⁻¹
kon (porcine DLL4 [10]): 106000 M⁻¹ s⁻¹
B1: Monoclonal Antibody 8C2 (antibody, V domains shown)
VH: QVQLKESGPGLVQPSQTLSLTCTVSGISISIYGVSWVRQPPGKGLEWMGGIWGDGSTDYNSALKSRLSLSRDTSKSQVFLKMNSLQTEDTAIYFCTLSGDFDYWGHGVLVTVSS
VL: DIQLTQSPASLSASLDEIVTITCQASLDIGNWLAWYQQKTGKSPQLLIYGATSLAGGVPSRFSGSRSGTQYSLKISKLQVEDTGIYYCLQHYRAPFTFGSGTKLEI
notes: Rat hybridoma monoclonal antibody, IgG type (captured by goat anti-rat Fc); also called BMH-8C2-D10; BMH-8C2-D4

binding result (human DLL1 [11]): no binding (tested: 100 nM)
Kd (human DLL4 [12]): 2.27 nM
koff (human DLL4 [12]): 0.00108 s⁻¹
kon (human DLL4 [12]): 474000 M⁻¹ s⁻¹
Kd (porcine DLL4 [13]): 7.21 nM
koff (porcine DLL4 [13]): 0.00182 s⁻¹
kon (porcine DLL4 [13]): 253000 M⁻¹ s⁻¹
Kd (human DLL4 [14]): 2.12 nM
koff (human DLL4 [14]): 0.00161 s⁻¹
kon (human DLL4 [14]): 759000 M⁻¹ s⁻¹
Kd (porcine DLL4 [10]): 9.95 nM
koff (porcine DLL4 [10]): 0.00171 s⁻¹
kon (porcine DLL4 [10]): 172000 M⁻¹ s⁻¹
B2: Monoclonal Antibody 8D2 (antibody, V domains shown)
VH: SGGGLVQPGRSMKLSCAASGFTFSNYDMAWVRQDPKKGLEWVATISYDGRSTYYRDSVKGRFTISRDNAKSTLYLQMDSLRSEDTATYYCKDYDGHYHPYGMEAWGQGISVTVSS
VL: DIVLTQSPALAVTLGQRATISCRASQSVTISNYNLMQWYQQRPGRQPKLLIYDASNLASGIPARFSGSGSGTDFTLTIDPVQADDIATYYCQQSRDDPRTFGGGTKLELR
notes: Rat hybridoma monoclonal antibody, IgG type (captured by goat anti-rat Fc); also called BMH-8D2-D10; rat 8D2

binding result (human DLL1 [15]): no binding (tested: 100 nM)
Kd (human DLL4 [16]): 88.6 nM
koff (human DLL4 [16]): 0.00109 s⁻¹
kon (human DLL4 [16]): 12400 M⁻¹ s⁻¹
Kd (porcine DLL4 [17]): 9370 nM
koff (porcine DLL4 [17]): 0.00276 s⁻¹
kon (porcine DLL4 [17]): 295 M⁻¹ s⁻¹
Kd (porcine DLL4 [18]): 1240 nM
koff (porcine DLL4 [18]): 0.00345 s⁻¹
kon (porcine DLL4 [18]): 2790 M⁻¹ s⁻¹
B3: Monoclonal Antibody 2H10 (antibody, V domains shown)
VH: QVQVKESGPGLVQPSQTLSLTCIVSGFSLSSYHVSWVRQPPGKSLVWMGTIWAGGGTNYNSAVQSRLSISRDTSKSQVFLKVNSLQPEDTGTYYCARHYYDGYYHGPYFDYWGQGVMVTV
VL: SPASLSASLGETVTFECRASEDIYTNLAWYQQKPGNSPQLLIYDANTLADGVPSRFSGSGSGTQFSLKINSLQSEDVASYFCQQYDSYPWTFGGGTKLELRR
notes: Rat hybridoma monoclonal antibody, IgG type (captured by goat anti-rat Fc); also called BMH-2H10-A7
